In the data set the test system is T1, CC(=O)C(=O)O.
T1 construct: full length, TTG start changed to ATG, untagged, expressed in S. cerevisiae GRF18U; crude cell extract; homotetramer
In words: cells, lysate or membranes. The settings on record: NADH, acetate buffer pH 5.6, 25 °C, no fructose 1,6-diphosphate, Table 2 prints 1,50. In kind it is biochemical, Lactiplantibacillus plantarum.

Drawing on PMC1373645, “Lactate production yield from engineered yeasts is dependent from the host background, the lactate dehydrogenase source and the lactate export” (Microbial Cell Factories, 2006), this text covers Km for 1 substance.

The Km is the concentration of substrate that gives half-maximal velocity. Consider “L. plantarum LDH (LpLDH, plLDH) (Lactiplantibacillus plantarum WCFS1; C302S/H54D)”, for which the Km was 1504 µM.
